Here are results for 3 molecules from publication PMC9927256, “Structural and Functional Characterization of Rv0792c from Mycobacterium tuberculosis: Identifying Small Molecule Inhibitor against HutC Protein” (Microbiology Spectrum, 2022).

One series deals with T1, Rv0792c (Mycobacterium tuberculosis, UniProt O86331).
T1 construct: His6-Rv0792c
In words: […]; EMSA with Cy5-labeled native promoter. Type of series: binding. For orientation: Mobility shift assays separate free from complexed probe on a gel.

Series [1] addresses T2, Rv0792c (HutC, GntR family) (Mycobacterium tuberculosis) (UniProt O86331).
T2 sequence (O86331 whole entry, looked up): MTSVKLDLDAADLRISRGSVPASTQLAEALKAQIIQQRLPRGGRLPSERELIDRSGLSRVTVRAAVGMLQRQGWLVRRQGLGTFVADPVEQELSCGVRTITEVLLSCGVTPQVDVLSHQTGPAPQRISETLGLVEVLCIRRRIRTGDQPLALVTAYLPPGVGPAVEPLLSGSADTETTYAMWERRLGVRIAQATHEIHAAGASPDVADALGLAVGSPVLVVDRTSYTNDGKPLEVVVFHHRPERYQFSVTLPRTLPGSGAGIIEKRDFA
As to the kind of experiment: competitive ALISA.

Series [2] has as its target T2, Rv0792c (HutC, GntR family) (Mycobacterium tuberculosis). As to the kind of experiment: ALISA (plate-immobilized protein).
Series [3] deals with the molecule itself. As to the kind of experiment: AUC; sedimentation velocity; Rv0792c at 0.38, 0.76 and 1.52 mg/mL in 25 mM HEPES pH 7.2, 400 mM NaCl, 10% glycerol; 40,000 rpm; absorbance at 280 nm; c(s) analysis with SedFit; S20,w.

The term IC50 denotes the concentration that inhibits the measured activity by half. `COc1cc(/C=C(\C#N)C(=O)c2ccc(O)c(O)c2)cc(I)c1O` [I-OMe-Tyrphostin, (2E)-2-(3,4-dihydroxybenzoyl)-3-(4-hydroxy-3-iodo-5-methoxyphenyl) acrylonitrile] gave an IC50 against Rv0792c of about 109 nM.
Broadly, the Kd is the equilibrium constant for the complex coming apart. Consider “TCTAGTCATTCGTCATAATCCCATCTGTTTCTTCCTCCTTCCGT [Rv0792c_2 aptamer (also Rv0729c_2)]”, for which the IC50 in series [1] came out at 109 nM. In series [2], this molecule registered a Kd of 51 nM.

B1: Rv0792c from Mycobacterium tuberculosis, wild type, with an amino-terminal histidine tag (natural protein)
chain: MTSVKLDLDAADLRISRGSVPASTQLAEALKAQIIQQRLPRGGRLPSERELIDRSGLSRVTVRAAVGMLQRQGWLVRRQGLGTFVADPVEQELSCGVRTITEVLLSCGVTPQVDVLSHQTGPAPQRISETLGLVEVLCIRRRIRTGDQPLALVTAYLPPGVGPAVEPLLSGSADTETTYAMWERRLGVRIAQATHEIHAAGASPDVADALGLAVGSPVLVVDRTSYTNDGKPLEVVVFHHRPERYQFSVTLPRTLPGSGAGIIEKRDFA
notes: also called His6-Rv0792c; (His)6-Rv0792c; not shown: His6, N-terminal, kept
The stoichiometry N is the number of molecules, sites or subunits per partner or assembly. For B1, in series [3], the “stoichiometry N” value was 2.
